Values belong to the molecule of their own block, whether it stands above or below them.
Assays:
[1] = biological target: Dnmt3b-C (C-terminal catalytic domain of mouse Dnmt3b) (mouse)
Dnmt3b-C = Dnmt3b-C (mouse, UniProt O88509 558-859); assay: nitrocellulose filter binding

DNA methylation activity of Dnmt3b-C in the presence of Dnmt3L (fold activation) [1]: 6 fold
Molecule: Dnmt3L (from UniProt Q9CWR8 1-421) (natural protein)

B1: Cy5-labeled 30-mer, one CpG site (dsDNA)
DNA 1: GAAGCTGGGACTTCCGGGAGGAGAGTGCAA
DNA 2: TTGCACTCTCCTCCCGGAAGTCCCAGCTTC
binding result (Dnmt3b-C): binds
